From US20210388053A1 come the findings set out here.

Numbering of substitutions follows the chain as printed. Numbers in names are those of the source. Where “and” joins values, the source holds several entries; their conditions need not be identical. Equal values may be shown once.

Assay [1] concerns the target canine FcRn/B2M protein complex (canine FcRn ECD with C-terminal poly-His tag and canine Beta-2-Microglobulin) (canine). Description: SPR Biacore T200, pH 6.0; biotinylated FcRn/B2M captured on streptavidin, antibody 2.5-160 nM as analyte, kinetic fit. On the technique in general: SPR reads the build-up and loss of mass on a sensor chip optically.
The target is the same in assay [2]. Description: SPR Biacore T200, pH 6.0; biotinylated FcRn/B2M captured on streptavidin, antibody 18.75-1200 nM, steady state analysis.
The target is the same in assay [3]. Description: SPR Biacore T200, pH 6.0; biotinylated FcRn/B2M captured on streptavidin, antibody 1.5625-100 nM as analyte, kinetic fit.
Assay [4] shares this target. Description: SPR Biacore T200, pH 6.0; biotinylated FcRn/B2M captured on streptavidin, antibody 12.5-800 nM, steady state analysis.
The target is the same in assay [5]. Description: SPR Biacore T200, pH 6.0; biotinylated FcRn/B2M immobilized, Fc as analyte.
For assay [6] the target is unchanged. As to the kind of experiment: SPR Biacore T200 steady state, pH 6.0, 25 C; Fc on CM5 chip, FcRn/B2M 12.5-200 nM.
Assay [7] has the same target. Description: SPR Biacore 8K, pH 6.0, 25 C; Fc captured by SASA tag on BSA chip, FcRn/B2M 400 nM as analyte.
Assay [8] shares this target. As to the kind of experiment: SPR Biacore 8K, pH 6.0, 25 C; Fc captured by SASA tag on BSA chip, FcRn/B2M 400 nM as analyte; dissociation exceeded the detection limit.

Chain of canine FcRn/B2M protein complex (canine FcRn ECD with C-terminal poly-His tag and canine Beta-2-Microglobulin) (canine) (chain, as listed by the source limits assumed, form in doubt, chain 1 of 2): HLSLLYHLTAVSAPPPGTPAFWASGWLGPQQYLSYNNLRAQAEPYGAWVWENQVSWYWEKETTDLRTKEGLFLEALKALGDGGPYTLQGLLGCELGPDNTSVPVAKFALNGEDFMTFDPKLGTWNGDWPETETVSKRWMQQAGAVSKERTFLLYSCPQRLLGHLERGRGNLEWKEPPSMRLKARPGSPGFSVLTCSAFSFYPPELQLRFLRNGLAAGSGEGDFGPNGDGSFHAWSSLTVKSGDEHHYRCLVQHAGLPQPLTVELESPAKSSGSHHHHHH
Chain of canine FcRn/B2M protein complex (canine FcRn ECD with C-terminal poly-His tag and canine Beta-2-Microglobulin) (canine) (b2m, as listed by the source limits assumed, form in doubt, chain 2 of 2): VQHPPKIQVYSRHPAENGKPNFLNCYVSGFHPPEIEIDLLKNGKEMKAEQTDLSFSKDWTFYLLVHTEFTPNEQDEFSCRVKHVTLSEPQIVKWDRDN

B1: caninized anti-canine IL31 clone M14 antibody with Y0Y variant canine IgG-B Fc polypeptide (antibody)
heavy: EVQLVESGPSLVKPGGSLRLTCSVTGDSITSGYWNWIRKFPGNKLEYMGYISYSGITDYNPSLKSRITISRDTSKNQYYLQLNSVTTEDTATYYCARYGNYGYAMDYWGQGTLVTVSSASTTAPSVFPLAPSCGSTSGSTVALACLVSGYFPEPVTVSWNSGSLTSGVHTFPSVLQSSGLYSLSSMVTVPSSRWPSETFTCNVAHPASKTKVDKPVPKRENGRVPRPPDCPKCPAPEMLGGPSVFIFPPKPKDTLYIARTPEVTCVVVDLDPEDPEVQISWFVDGKQMQTAKTQPREEQFNGTYRVVSVLPIGHQDWLKGKQFTCKVNNKALPSPIERTISKARGQAHQPSVYVLPPSREELSKNTVSLTCLIKDFFPPDIDVEWQSNGQQEPESKYRTTPPQLDEDGSYFLYSKLSVDKSRWQRGDTFICAVMHEALHYHYTQESLSHSPGK
light: DIVMTQSPASLSVSLGQRATISCRASESVDTYGNSFMHWYQQKPGQSPKLLIYRASNLESGIPARFGGSGSGTDFTLTIDPVQADDVATYYCQQSYEDPWTFGGGTKLEIKRNDAQPAVYLFQPSPDQLHTGSASVVCLLNSFYPKDINVKWKVDGVIQDTGIQESVTEQDKDSTYSLSSTLTMSSTEYLSHELYSCEITHKSLPSTLIKSFQRSECQRVD
As usually defined, the Kd is a measure of binding affinity in units of concentration. Read a low Kd as higher affinity. Usually koff stands for the first-order rate constant of dissociation. A higher koff goes with a short-lived complex. One may read the kon as the second-order rate constant of association. In assay [1], B1 had a Kd of 15.6 nM, a koff of 0.00262 s⁻¹ and a kon of 168000 M⁻¹ s⁻¹.

B2: caninized anti-canine IL31 clone M14 antibody with wild-type canine IgG-B Fc polypeptide (antibody)
heavy: B1 heavy with Y256L, Y440N
light: B1 light
B2: the Kd in assay [2] amounted to 410 nM. This lies in the sub-micromolar range.

B3: caninized anti-canine IL31 clone M14 antibody with YYY variant canine IgG-B Fc polypeptide (antibody)
heavy: B1 heavy with Q315Y
light: B1 light
In assay [3], B3 had a Kd of 3.84 nM, a koff of 0.000869 s⁻¹ and a kon of 227000 M⁻¹ s⁻¹.

B4: caninized anti-canine IL31 clone M14 antibody with YTE variant canine IgG-B Fc polypeptide (antibody)
heavy: B1 heavy with A258T, T260E, Y440N
light: B1 light
Consider B4, for which the Kd in assay [4] came to 231 nM.

B5: variant canine IgG-B Fc polypeptide L(24)M (protein, not shown: small tags and cut ends)
chain: CPAPEMLGGPSVFIFPPKPKDTLMIARTPEVTCVVVDLDPEDPEVQISWFVDGKQMQTAKTQPREEQFNGTYRVVSVLPIGHQDWLKGKQFTCKVNNKALPSPIERTISKARGQAHQPSVYVLPPSREELSKNTVSLTCLIKDFFPPDIDVEWQSNGQQEPESKYRTTPPQLDEDGSYFLYSKLSVDKSRWQRGDTFICAVMHEALHNHYTQESLSHSPGK
With B5, in assay [5], the koff is 0.126 s⁻¹. Besides, the Kd in assay [6] worked out at 406 nM.

B6: YTE variant canine IgG-B Fc polypeptide (Leu24Tyr, Ala26Thr, Thr28Glu) (protein, not shown: small tags and cut ends)
chain: B5 chain with M24Y, A26T, T28E
In assay [7], B6 came in with a dissociation constant Kd of 31 nM, a koff of 0.0205 s⁻¹ and a kon of 662000 M⁻¹ s⁻¹. The same molecule returned a Kd in assay [6] of 86.2 nM.

B7: variant canine IgG-B Fc polypeptide YYW (Leu24Tyr, Gln83Tyr, Asn208Trp) (protein, not shown: small tags and cut ends)
chain: B5 chain with M24Y, Q83Y, N208W
In assay [7], B7 registered an equilibrium dissociation constant (Kd) of 1.93 nM, an off-rate constant (koff) of 0.000496 s⁻¹ and a kon of 256000 M⁻¹ s⁻¹.

B8: variant canine IgG-B Fc polypeptide L(24)S (protein, not shown: small tags and cut ends)
chain: B5 chain with M24S
In assay [5], B8 displayed a koff of 0.241 s⁻¹.

B9: variant canine IgG-B Fc polypeptide L(24)F (protein, not shown: small tags and cut ends)
chain: B5 chain with M24F
In the case of B9, the off-rate constant (koff) in assay [5] was 0.0631 s⁻¹ and 0.0847 s⁻¹. This molecule had a Kd in assay [6] of 367 nM.

B10: variant canine IgG-B Fc polypeptide 0YW (Gln83Tyr, Asn208Trp) (protein, not shown: small tags and cut ends)
chain: B5 chain with M24L, Q83Y, N208W
Turning to B10, in assay [7], the Kd is 6.1 nM, the dissociation rate constant (koff) is 0.00213 s⁻¹ and the kon was 348000 M⁻¹ s⁻¹.

B11: variant canine IgG-B Fc polypeptide Y0H (Leu24Tyr, Asn208His) (protein, not shown: small tags and cut ends)
chain: B5 chain with M24Y, N208H
As for B11, in assay [7], the Kd stood at 8.11 nM, the off-rate (koff) amounted to 0.00271 s⁻¹ and the kon was 334000 M⁻¹ s⁻¹.

B12: variant canine IgG-B Fc polypeptide YYR (Leu24Tyr, Gln83Tyr, Asn208Arg) (protein, not shown: small tags and cut ends)
chain: B5 chain with M24Y, Q83Y, N208R
In assay [7], B12 registered a dissociation constant Kd of 1.84 nM, a koff of 0.000638 s⁻¹ and a kon of 347000 M⁻¹ s⁻¹.

B13: variant canine IgG-B Fc polypeptide Y0W (Leu24Tyr, Asn208Trp) (protein, not shown: small tags and cut ends)
chain: B5 chain with M24Y, N208W
In assay [7], B13 returned a dissociation constant Kd of 3.72 nM, a koff of 0.000929 s⁻¹ and an on-rate (kon) of 250000 M⁻¹ s⁻¹.

B14: variant canine IgG-B Fc polypeptide 0YF (Gln83Tyr, Asn208Phe) (protein, not shown: small tags and cut ends)
chain: B5 chain with M24L, Q83Y, N208F
With B14, in assay [7], the Kd turned out to be 3.1 nM, the dissociation rate constant (koff) is 0.00118 s⁻¹ and the kon stood at 380000 M⁻¹ s⁻¹.

B15: variant canine IgG-B Fc polypeptide Y0F (Leu24Tyr, Asn208Phe) (protein, not shown: small tags and cut ends)
chain: B5 chain with M24Y, N208F
For B15, in assay [7], the dissociation constant (Kd) is 0.787 nM, the koff was 0.000221 s⁻¹ and the association rate constant (kon) stood at 281000 M⁻¹ s⁻¹.

B16: variant canine IgG-B Fc polypeptide YYY (Leu24Tyr, Gln83Tyr, Asn208Tyr) (protein, not shown: small tags and cut ends)
chain: B5 chain with M24Y, Q83Y, N208Y
For B16, the on-rate (kon) in assay [7] is 262000 M⁻¹ s⁻¹. In assay [8], this molecule came in with a Kd of 0.000713 nM and an off-rate (koff) of 1.87e-07 s⁻¹.

B17: variant canine IgG-B Fc polypeptide YYF (Leu24Tyr, Gln83Tyr, Asn208Phe) (protein, not shown: small tags and cut ends)
chain: B5 chain with M24Y, Q83Y, N208F
As for B17, the on-rate constant (kon) in assay [7] was 271000 M⁻¹ s⁻¹. In assay [8], this molecule yielded a dissociation constant (Kd) of 0.000602 nM and an off-rate constant (koff) of 1.63e-07 s⁻¹.

B18: variant canine IgG-B Fc polypeptide 0YH (Gln83Tyr, Asn208His) (protein, not shown: small tags and cut ends)
chain: B5 chain with M24L, Q83Y, N208H
B18: in assay [7], the Kd is 11.8 nM, the off-rate (koff) came to 0.00791 s⁻¹ and the kon is 673000 M⁻¹ s⁻¹.

B19: variant canine IgG-B Fc polypeptide L(24)Y (protein, not shown: small tags and cut ends)
chain: B5 chain with M24Y
For B19, the koff in assay [5] was found to be 0.0138 s⁻¹. Also, the Kd in assay [6] was found to be 113 nM.

B20: variant canine IgG-B Fc polypeptide YYH (Leu24Tyr, Gln83Tyr, Asn208His) (protein, not shown: small tags and cut ends)
chain: B5 chain with M24Y, Q83Y, N208H
In assay [7], B20 came in with a Kd of 1.7 nM, a koff of 0.000612 s⁻¹ and a kon of 360000 M⁻¹ s⁻¹.

B21: variant canine IgG-B Fc polypeptide Y0Y (Leu24Tyr, Asn208Tyr) (protein, not shown: small tags and cut ends)
chain: B5 chain with M24Y, N208Y
For the molecule B21, in assay [7], the Kd was determined as 0.49 nM, the koff was 0.00014 s⁻¹ and the kon stood at 286000 M⁻¹ s⁻¹.

B22: wild-type canine IgG-B Fc polypeptide (protein, not shown: small tags and cut ends)
chain: B5 chain with M24L
In assay [7], B22 came in with a Kd of 102 nM, a koff of 0.0856 s⁻¹ and an association rate constant (kon) of 838000 M⁻¹ s⁻¹. In assay [5], the dissociation rate constant (koff) is 0.122 s⁻¹. This molecule also registered a Kd in assay [6] of 1250 nM.

B23: variant canine IgG-B Fc polypeptide 0YR (Gln83Tyr, Asn208Arg) (protein, not shown: small tags and cut ends)
chain: B5 chain with M24L, Q83Y, N208R
In assay [7], B23 registered an equilibrium dissociation constant (Kd) of 9.45 nM, a koff of 0.00655 s⁻¹ and a kon of 693000 M⁻¹ s⁻¹.

B24: variant canine IgG-B Fc polypeptide Y0R (Leu24Tyr, Asn208Arg) (protein, not shown: small tags and cut ends)
chain: B5 chain with M24Y, N208R
In assay [7], B24 returned a dissociation constant Kd of 8.64 nM, a koff of 0.00295 s⁻¹ and an association rate constant (kon) of 341000 M⁻¹ s⁻¹.

B25: variant canine IgG-B Fc polypeptide 0YY (Gln83Tyr, Asn208Tyr) (protein, not shown: small tags and cut ends)
chain: B5 chain with M24L, Q83Y, N208Y
In assay [7], B25 displayed a dissociation constant Kd of 2.03 nM, an off-rate (koff) of 0.00086 s⁻¹ and a kon of 425000 M⁻¹ s⁻¹.
